Assay results published in PMC4461315.

What follows are substances tested against human complement Factor H (human) (UniProt P08603) (assay: SPR).
human complement Factor H (human), sequence (P08603 19-1231): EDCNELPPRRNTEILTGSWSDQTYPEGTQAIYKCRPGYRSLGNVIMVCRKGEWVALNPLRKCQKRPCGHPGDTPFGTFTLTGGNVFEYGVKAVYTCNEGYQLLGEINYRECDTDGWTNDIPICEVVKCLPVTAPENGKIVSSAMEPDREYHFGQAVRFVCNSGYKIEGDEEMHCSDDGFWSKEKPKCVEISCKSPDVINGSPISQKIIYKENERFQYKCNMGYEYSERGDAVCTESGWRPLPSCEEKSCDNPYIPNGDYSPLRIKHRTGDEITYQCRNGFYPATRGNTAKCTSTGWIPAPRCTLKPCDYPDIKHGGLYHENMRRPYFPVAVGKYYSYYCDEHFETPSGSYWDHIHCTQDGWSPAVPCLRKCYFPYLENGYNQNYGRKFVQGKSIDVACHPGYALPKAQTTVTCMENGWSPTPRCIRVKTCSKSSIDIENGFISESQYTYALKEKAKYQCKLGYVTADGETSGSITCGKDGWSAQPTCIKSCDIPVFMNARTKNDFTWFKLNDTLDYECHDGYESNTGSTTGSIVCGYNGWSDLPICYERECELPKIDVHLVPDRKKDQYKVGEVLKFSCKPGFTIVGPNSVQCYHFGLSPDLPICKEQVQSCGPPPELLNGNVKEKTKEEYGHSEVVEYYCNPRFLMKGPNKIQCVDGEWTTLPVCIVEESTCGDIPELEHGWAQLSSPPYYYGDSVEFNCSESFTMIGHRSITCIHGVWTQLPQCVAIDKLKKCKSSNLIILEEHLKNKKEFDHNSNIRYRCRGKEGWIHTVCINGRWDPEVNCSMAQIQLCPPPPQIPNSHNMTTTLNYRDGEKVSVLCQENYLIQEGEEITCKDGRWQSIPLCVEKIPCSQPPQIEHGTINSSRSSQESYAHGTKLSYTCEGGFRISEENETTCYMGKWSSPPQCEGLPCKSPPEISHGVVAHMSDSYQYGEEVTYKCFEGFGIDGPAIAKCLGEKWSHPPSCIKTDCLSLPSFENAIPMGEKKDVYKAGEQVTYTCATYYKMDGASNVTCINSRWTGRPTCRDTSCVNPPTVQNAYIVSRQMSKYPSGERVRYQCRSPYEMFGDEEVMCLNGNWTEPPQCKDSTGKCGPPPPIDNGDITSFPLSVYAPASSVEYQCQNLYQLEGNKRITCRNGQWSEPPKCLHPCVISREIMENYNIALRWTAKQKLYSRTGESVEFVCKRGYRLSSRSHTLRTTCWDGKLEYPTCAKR

Row | Substance | response units at 100 nM FHbp (response units)
1 | FHbp ID 1 S223R mutant, soluble recombinant (from UniProt Q9JXV4 20-274) (natural protein) | < 2
2 | FHbp ID 1 H248L mutant, soluble recombinant (from UniProt Q9JXV4 20-274) (natural protein) | < 2
3 | FHbp ID 1 E92K mutant, soluble recombinant (from UniProt Q9JXV4 20-274) (natural protein) | < 2
